T1: FliP (Salmonella enterica serovar Typhimurium, UniProt P54700 22-245)
T1 sequence (looked up): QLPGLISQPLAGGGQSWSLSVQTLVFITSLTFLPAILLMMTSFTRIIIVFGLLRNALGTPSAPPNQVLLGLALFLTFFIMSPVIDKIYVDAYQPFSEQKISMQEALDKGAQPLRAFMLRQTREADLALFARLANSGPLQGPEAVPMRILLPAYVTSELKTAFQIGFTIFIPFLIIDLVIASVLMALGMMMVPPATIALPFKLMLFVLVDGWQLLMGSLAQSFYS

B1: FliF (natural protein, Salmonella enterica serovar Typhimurium, UniProt P15928 1-560, looked up)
chain: MSATASTATQPKPLEWLNRLRANPRIPLIVAGSAAVAIVVAMVLWAKTPDYRTLFSNLSDQDGGAIVAQLTQMNIPYRFANGSGAIEVPADKVHELRLRLAQQGLPKGGAVGFELLDQEKFGISQFSEQVNYQRALEGELARTIETLGPVKSARVHLAMPKPSLFVREQKSPSASVTVTLEPGRALDEGQISAVVHLVSSAVAGLPPGNVTLVDQSGHLLTQSNTSGRDLNDAQLKFANDVESRIQRRIEAILSPIVGNGNVHAQVTAQLDFANKEQTEEHYSPNGDASKATLRSRQLNISEQVGAGYPGGVPGALSNQPAPPNEAPIATPPTNQQNAQNTPQTSTSTNSNSAGPRSTQRNETSNYEVDRTIRHTKMNVGDIERLSVAVVVNYKTLADGKPLPLTADQMKQIEDLTREAMGFSDKRGDTLNVVNSPFSAVDNTGGELPFWQQQSFIDQLLAAGRWLLVLVVAWILWRKAVRPQLTRRVEEAKAAQEQAQVRQETEEAVEVRLSKDEQLQQRRANQRLGAEVMSQRIREMSDNDPRVVALVIRQWMSNDHE
B2: FlgI (natural protein, Salmonella enterica serovar Typhimurium, UniProt P15930 20-365, looked up)
chain: ERIRDLTSVQGVRENSLIGYGLVVGLDGTGDQTTQTPFTTQTLNNMLSQLGITVPTGTNMQLKNVAAVMVTASYPPFARQGQTIDVVVSSMGNAKSLRGGTLLMTPLKGVDSQVYALAQGNILVGGAGASAGGSSVQVNQLNGGRITNGAIIERELPTQFGAGNTINLQLNDEDFTMAQQITDAINRARGYGSATALDARTVQVRVPSGNSSQVRFLADIQNMEVNVTPQDAKVVINSRTGSVVMNREVTLDSCAVAQGNLSVTVNRQLNVNQPNTPFGGGQTVVTPQTQIDLRQSGGSLQSVRSSANLNSVVRALNALGATPMDLMSILQSMQSAGCLRAKLEII
B3: FlgB (natural protein, Salmonella enterica serovar Typhimurium, UniProt P16437 1-138, looked up)
chain: MLDRLDAALRFQQEALNLRAQRQEILAANIANADTPGYQARDIDFASELKKVMVRGREETGGVALTLTSSHHIPAQAVSSPAVDLLYRVPDQPSLDGNTVDMDRERTQFADNSLKYQMGLTVLGSQLKGMMNVLQGGN
B4: FlgF (natural protein, Salmonella enterica serovar Typhimurium, UniProt P16323 1-251, looked up)
chain: MDHAIYTAMGAASQTLNQQAVTASNLANASTPGFRAQLNALRAVPVDGLSLATRTLVTASTPGADMTPGQLDYTSRPLDVALQQDGWLVVQAADGAEGYTRNGNIQVGPTGQLTIQGHPVIGEGGPITVPEGSEITIAADGTISALNPGDPPNTVAPVGRLKLVKAEGNEVQRSDDGLFRLTAEAQAERGAVLAADPSIRIMSGVLEGSNVKPVEAMTDMIANARRFEMQMKVITSVDENEGRANQLLSMS
B5: FlgG (natural protein, Salmonella enterica serovar Typhimurium, UniProt P0A1J3 1-260, looked up)
chain: MISSLWIAKTGLDAQQTNMDVIANNLANVSTNGFKRQRAVFEDLLYQTIRQPGAQSSEQTTLPSGLQIGTGVRPVATERLHSQGNLSQTNNSKDVAIKGQGFFQVMLPDGTSAYTRDGSFQVDQNGQLVTAGGFQVQPAITIPANALSITIGRDGVVSVTQQGQAAPVQVGQLNLTTFMNDTGLESIGENLYIETQSSGAPNESTPGLNGAGLLYQGYVETSNVNVAEELVNMIQVQRAYEINSKAVSTTDQMLQKLTQL

How the values were obtained:
Test in all cases: cryo-EM structure
[1] = biological target: the molecule itself
[2] = biological target: B5
[3] = biological target: B3
[4] = biological target: B4
[5] = biological target: B1
[6] = biological target: B2
[7] = biological target: T1, FliP

Binder | stoichiometry N [1] | binding result [5] | further results
B1 | 34 | – | –
FlgD (natural protein, Salmonella enterica serovar Typhimurium, UniProt P0A1I9 1-232, looked up) MSIAVNMNDPTNTGVKTTTGSGSMTGSNAADLQSSFLTLLVAQLKNQDPTNPLQNNELTTQLAQISTVSGIEKLNTTLGAISGQIDNSQSLQATTLIGHGVMVPGTTILAGKGAEEGAVTSTTPFGVELQQPADKVTATITDKDGRVVRTLEIGELRAGVHTFTWDGKQTDGTTVPNGSYNIAITASNGGTQLVAQPLQFALVQGVTKGSNGNLLDLGTYGTTTLDEVRQII | 5 | – | binding result [2]: binds
FlgC (natural protein, Salmonella enterica serovar Typhimurium, UniProt P0A1I7 1-134, looked up) MALLNIFDIAGSALAAQSKRLNVAASNLANADSVTGPDGQPYRAKQVVFQVDAAPGQATGGVKVASVIESQAPEKLVYEPGNPLADANGYVKMPNVDVVGEMVNTMSASRSYQANIEVLNTVKSMMLKTLTLGQ | 6 copies | binds | binding result [3]: binds; binding result [4]: binds
B2 | 26 copies | – | –
B3 | 5 copies | binds | –
FlgH (natural protein, Salmonella enterica serovar Typhimurium, UniProt P0A1N8 22-232, looked up, lipidated N-terminal Cys (3 lipid moieties; diacylglycerol attached to the sidechain)) CAWIPAKPLVQGATTAQPIPGPVPVANGSIFQSAQPINYGYQPLFEDRRPRNIGDTLTIVLQENVSASKSSSANASRDGKTSFGFDTVPRYLQGLFGNSRADMEASGGNSFNGKGGANASNTFSGTLTVTVDQVLANGNLHVVGEKQIAINQGTEFIRFSGVVNPRTISGSNSVPSTQVADARIEYVGNGYINEAQNMGWLQRFFLNLSPM | 26 copies | – | binding result [6]: binds
FliE (natural protein, Salmonella enterica serovar Typhimurium, UniProt P26462 1-104, looked up) MAAIQGIEGVISQLQATAMAARGQDTHSQSTVSFAGQLHAALDRISDRQAAARVQAEKFTLGEPGIALNDVMADMQKASVSMQMGIQVRNKLVAAYQEVMSMQV | – | – | binding result [3]: binds; binding result [7]: binds
B4 | 5 copies | binds | binding result [2]: binds
B5 | 24 copies | – | binding result [6]: binds
